Source: patent US20100233157A1 (published 2010)

Key:
[1] = target: T1, Mouse Fas on the cell surface (mouse, UniProt P25446 22-327); experiment: flow cytometry histograms (FL1-H) on mouse PBL, FITC anti-human kappa secondary
T1 construct: whole, on cells; also called Fas on peripheral blood lymphocytes of BALB/c mice
T1 sequence (looked up): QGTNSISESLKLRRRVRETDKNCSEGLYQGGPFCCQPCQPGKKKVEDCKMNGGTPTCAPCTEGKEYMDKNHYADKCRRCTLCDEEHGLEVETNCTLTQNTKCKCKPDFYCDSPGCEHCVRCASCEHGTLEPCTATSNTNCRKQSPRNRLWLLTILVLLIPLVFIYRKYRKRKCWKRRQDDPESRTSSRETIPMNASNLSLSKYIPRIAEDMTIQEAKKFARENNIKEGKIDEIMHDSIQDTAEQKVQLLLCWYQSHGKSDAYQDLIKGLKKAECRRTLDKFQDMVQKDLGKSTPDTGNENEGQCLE
Excerpt: (§1) Reactivity of F45D9-γ1 or F45D9-γ4 mAb with Fas molecules of various species was initially screened using primary blood cells or lymphocytes cell lines. The binding of F45D9-γ1 or F45D9-γ4 mAb was explored by immunofluoresce staining and flow cytometry analysis, in human PBMC, purified human resting T cells, activated human T cells, peripheral blood lymphocytes (PBL) derived from BALE/c mice, rat, dog and pig, and in B cell lines or PBL derived from common marmoset, cynomolgus macaque, olive baboon, rhesus macaque and chimpanzee. Resting and activated human T cells were prepared as described in Example 7. B cells lines from monkeys were obtained from Biomedical Primate Research Center (Rijswijk, The Netherlands), and were cultured in RPMI 1640 medium supplemented with 2 mM glutamax, 100 UI/mL penicillin, 100 μg/mL streptomycin and 10% fetal bovine serum, at 37° C. and 5% CO₂. After washing in PBS cells (0.2−0.4×10⁶ cells/well) were incubated in staining buffer (PBS/1% FBS) containing F45D9-γ1 or human IgG control antibodies (10-20 ug/ml) in a 96-well U-bottom plate for 30 min on ice, in a 100 ul/well volume. Cells were then washed once with staining buffer, and further incubated for 30 min on ice with 1:30 dilution of FITC-conjugated rabbit F(ab′)₂ anti-human kappa (DakoCytomation Cat. F0434) or FITC-conjugated rabbit F(ab′)₂ anti-human IgG (DakoCytomation Cat. F0056). […]

[2] = target: T2, Recombinant human soluble Fas receptor (PeproTech, Cat. 310-20) (human, UniProt P25445 17-173); experiment: SPR (BIAcore 3000), soluble Fas immobilized on CM5 chip, antibody as analyte, bivalent analyte fit
T2 construct: Bought soluble form; also called sFas; rFas
T2 sequence (looked up): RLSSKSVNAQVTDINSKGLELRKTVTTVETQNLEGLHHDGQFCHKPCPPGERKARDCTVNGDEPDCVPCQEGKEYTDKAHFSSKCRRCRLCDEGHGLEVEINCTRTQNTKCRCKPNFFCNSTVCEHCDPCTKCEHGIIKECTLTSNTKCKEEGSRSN
Experimental: The interaction of F45D9 mAb's (γ-γ1 and γ4-isotypes) with immobilized soluble human Fas receptor was monitored by surface plasmon resonance detection using a BIAcore 3000 instrument. Recombinant human soluble Fas receptor (srFas) (PeproTech, cat. 310-20) was immobilized (concentration of 5 ug/ml in immobilization buffer: 10 mM sodium acetate pH 5.0) onto a CM5 sensor chip (BIAcore BR-1001-14) using an Amine Coupling kit (BIAcore, Cat. BR-1000-50), at a surface density of […] resonance units (RU). Deactivation of excess reactive groups on the chip surface was done by adding 1.0 M ethalonamine hydrochloride (pH 8.5). F45D9 mAb's-γ1 mAb were passed over the surface in equilibrium binding experiments at concentrations ranging from […] at a flow rate of 30 ul/min. Dilutions and binding experiments were conducted in 0.01 M HEPES (pH 7.4), 0.15 M NaCl, 3 mM EDTA, and 0.005% P-20 (BIAcore surfactant, BR-1001-88). Between each cycle 100 mM HCl was used to regenerate the surfaces at a flow rate 30 ul/min. KA and KD of F45D9 mAb's were-γ1 mAb was determined by fitting bivalentusing BIAcore models (BIAevaluation).

[3] = target: T3, Rhesus macaque Fas on the cell surface (rhesus macaque, UniProt Q9BDP2 26-333); experiment: flow cytometry histograms (FL1-H) on rhesus macaque cells (cell type not printed on the sheet), FITC anti-human kappa or FITC anti-human IgG secondary
T3 construct: whole, on cells
T3 sequence (looked up): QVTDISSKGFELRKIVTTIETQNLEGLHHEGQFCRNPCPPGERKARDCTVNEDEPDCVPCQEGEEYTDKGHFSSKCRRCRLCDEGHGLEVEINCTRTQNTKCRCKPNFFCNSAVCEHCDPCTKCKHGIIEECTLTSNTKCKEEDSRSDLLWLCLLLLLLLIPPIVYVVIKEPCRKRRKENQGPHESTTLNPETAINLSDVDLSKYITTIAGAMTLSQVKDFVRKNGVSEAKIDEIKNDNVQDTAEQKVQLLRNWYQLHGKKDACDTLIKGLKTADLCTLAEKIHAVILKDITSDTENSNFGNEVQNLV
Excerpt: as §1

[4] = target: T4, Common marmoset Fas on the cell surface (common marmoset (Callithrix jacchus)); experiment: flow cytometry on the marmoset B cell line 9601, FITC anti-human IgG secondary, MFI after subtraction of the control human γ1 staining
T4 construct: whole, on cells
Excerpt: as §1

[5] = target: T5, Human Fas (CD95) on the cell surface (human, UniProt P25445 26-335); experiment: cell-based or functional assay
T5 sequence: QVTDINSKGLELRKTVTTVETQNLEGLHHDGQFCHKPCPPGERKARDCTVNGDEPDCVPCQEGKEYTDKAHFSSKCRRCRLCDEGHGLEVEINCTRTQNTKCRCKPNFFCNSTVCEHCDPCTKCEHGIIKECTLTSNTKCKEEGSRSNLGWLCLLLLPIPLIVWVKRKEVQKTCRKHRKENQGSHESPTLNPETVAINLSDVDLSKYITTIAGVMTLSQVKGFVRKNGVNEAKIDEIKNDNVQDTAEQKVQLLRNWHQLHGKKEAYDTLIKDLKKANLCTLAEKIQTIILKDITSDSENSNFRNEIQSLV

- binding result [1]: no binding
- Kd [2]: 0.0411 nM
- binding result [3]: no binding
- EC50 (read off the curve) [4]: ~1 µg/mL
- IC50 of inhibition of rhFasL-induced apoptosis in SKW6.4 cells (Annexin-V/PI, flow cytometry) [5]: 0.2 nM
- IC50 of inhibition of rhFasL-induced apoptosis in activated human T cells (Annexin-V/PI, flow cytometry) [5]: 0.02 nM
- share of binding capacity on Jurkat cells at which complete blocking of FasL-induced apoptosis is achieved [5]: ≥ 12.5%
B1: F45D9-γ1 mAb (recombinant human mAb T17/B2-1G4, gamma-1 isotype) (antibody, V domains shown)
VH: QVQLQQWGAGLLKPSETLSLICAVYGGSFSTYYWTWIRQPPGKGLEWIGEINHRGTTNYSPSLKSRVTISVDTSKNHISLNLTSVTAADTALYYCARGLLWIGEGDYGLDVWGQGTTVTVSS
VL: DIQMTQSPSSLSASVGDRVTITCRASQGIRRWLAWYQQKPEKAPKSLIYAASSLQSGVPSRFSGSGSGTDFTLTISSLQPEDFATYYCQQYNSYPYTFGQGTKLEIKR
notes: Whole human IgG1 (γ1fa allotype) with human kappa light chain, made in CHO DG44 cells; also called IgG1; T17/L18/B2-1G4
